Holding throughout (experiment): FRET or BRET; FLIM-FRET (EGFP donor lifetime, mCherry acceptor) in living U2OS cells co-transfected with both constructs, imaged in PBS 42-45 h after transfection, normal cytosolic calcium; E = 1 - tauDA/tauD from amplitude-weighted mean lifetimes
(In BRET a luciferase serves as donor, and the signal depends on an acceptor being close.)

One test deals with T1, EGFP-ANXA2 (human, UniProt P07355 1-339).
T1 construct: human annexin A2 (ANXA2) with the fluorescent protein tag in the altered orientation (EGFP-ANXA2); The cloning of this orientation is not described in the methods; source: U2OS or HEK293T cells, transfected (calcium phosphate), in living cells; not shown: EGFP, N-terminal, kept

For another test, the target named is T2, ANXA2-EGFP (human, UniProt P07355 1-339).
T2 construct: human annexin A2 (ANXA2); EGFP is the FRET donor; also called annexin A2; source: U2OS cells, transfected (calcium phosphate), in living cells; not shown: EGFP, C-terminal, kept
Particulars: partners not purified.

The target in a further test is T3, ANXA4-EGFP (human, UniProt P09525 1-319).
T3 construct: human annexin A4, PCR amplified from A431 cDNA; cloned in pEGFP-N1 (HindIII, BamHI); also called annexin A4; source: U2OS cells, transfected (calcium phosphate), in living cells; not shown: EGFP, C-terminal, kept
T3 sequence (looked up): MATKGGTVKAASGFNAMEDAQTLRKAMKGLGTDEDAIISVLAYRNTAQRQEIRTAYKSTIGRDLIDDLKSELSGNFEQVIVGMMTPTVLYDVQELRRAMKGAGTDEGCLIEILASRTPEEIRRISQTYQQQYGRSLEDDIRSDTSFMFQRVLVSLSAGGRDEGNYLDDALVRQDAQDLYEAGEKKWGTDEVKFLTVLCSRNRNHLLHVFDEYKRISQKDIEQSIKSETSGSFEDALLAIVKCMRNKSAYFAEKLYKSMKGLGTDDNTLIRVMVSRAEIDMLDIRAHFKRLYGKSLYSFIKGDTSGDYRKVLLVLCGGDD
Particulars: partners not purified.

For a further test, the target named is T4, AnxA6-EGFP (rat, UniProt P48037 1-673).
T4 construct: rat annexin A6; plasmid provided by C; End of the tag read from the label AnxA6-EGFP; also called rat annexin A6; source: U2OS cells, transfected (calcium phosphate), in living cells; not shown: EGFP, C-terminal, kept
T4 sequence (looked up): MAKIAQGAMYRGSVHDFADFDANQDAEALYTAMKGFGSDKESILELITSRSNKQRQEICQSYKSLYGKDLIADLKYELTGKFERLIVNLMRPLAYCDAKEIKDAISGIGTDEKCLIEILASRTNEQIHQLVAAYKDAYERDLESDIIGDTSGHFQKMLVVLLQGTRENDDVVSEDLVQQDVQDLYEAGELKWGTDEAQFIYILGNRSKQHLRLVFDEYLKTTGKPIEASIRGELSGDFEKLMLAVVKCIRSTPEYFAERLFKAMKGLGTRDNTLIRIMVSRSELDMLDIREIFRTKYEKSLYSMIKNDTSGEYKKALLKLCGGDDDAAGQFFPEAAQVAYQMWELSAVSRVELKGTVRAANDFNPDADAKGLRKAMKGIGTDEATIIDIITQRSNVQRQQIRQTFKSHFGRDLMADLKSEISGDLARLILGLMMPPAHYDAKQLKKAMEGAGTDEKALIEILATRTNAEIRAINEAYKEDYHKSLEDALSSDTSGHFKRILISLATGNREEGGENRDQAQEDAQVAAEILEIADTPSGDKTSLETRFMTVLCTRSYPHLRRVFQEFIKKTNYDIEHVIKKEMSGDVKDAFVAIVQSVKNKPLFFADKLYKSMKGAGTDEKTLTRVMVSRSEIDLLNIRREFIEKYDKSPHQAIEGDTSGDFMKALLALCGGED
Particulars: partners not purified.

For another test, the target named is T5, ANXA1-EGFP (human, UniProt P04083 1-346).
T5 construct: human annexin A1, PCR amplified from A431 cDNA; cloned in pEGFP-N1 (XhoI, BamHI); End of the tag read from the label ANXA1-EGFP and the vector pEGFP-N1; also called annexin A1; source: U2OS cells, transfected (calcium phosphate), in living cells; not shown: EGFP, C-terminal, kept
T5 sequence (looked up): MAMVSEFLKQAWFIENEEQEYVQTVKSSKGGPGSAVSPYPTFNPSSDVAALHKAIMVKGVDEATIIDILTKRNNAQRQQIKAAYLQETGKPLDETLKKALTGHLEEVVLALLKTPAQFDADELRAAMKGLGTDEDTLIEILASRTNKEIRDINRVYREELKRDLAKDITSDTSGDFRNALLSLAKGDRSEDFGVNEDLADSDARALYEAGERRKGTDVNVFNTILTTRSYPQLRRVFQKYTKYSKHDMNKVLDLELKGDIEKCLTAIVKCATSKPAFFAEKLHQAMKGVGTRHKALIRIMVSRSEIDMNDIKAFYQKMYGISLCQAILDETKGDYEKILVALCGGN
The conditions noted are these: partners not purified.

Data on two molecules can be found in paper PMC10988696, “FLIM‐FRET‐based analysis of S100A11/annexin interactions in living cells” (FEBS Open Bio, 2024).

Read-outs that look alike come from different tables or passages of the source.

T1 sequence (P07355 whole entry): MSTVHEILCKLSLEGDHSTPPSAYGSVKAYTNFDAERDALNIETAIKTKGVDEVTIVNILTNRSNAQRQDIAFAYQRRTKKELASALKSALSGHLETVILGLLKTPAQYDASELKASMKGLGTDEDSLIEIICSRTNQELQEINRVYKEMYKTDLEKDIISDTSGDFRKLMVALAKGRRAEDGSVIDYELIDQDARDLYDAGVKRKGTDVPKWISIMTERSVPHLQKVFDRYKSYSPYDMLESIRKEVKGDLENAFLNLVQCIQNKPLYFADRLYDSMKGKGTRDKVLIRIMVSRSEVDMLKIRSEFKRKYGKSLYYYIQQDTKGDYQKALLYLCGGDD
T2 sequence (P07355 whole entry): as above

“S100A11ΔCa-mCherry (from UniProt P31949 1-105) (natural protein)”: the FRET efficiency (E) with EGFP-ANXA2 amounted to 3.7%.

B1: S100A11-mCherry (natural protein, human, UniProt P31949 1-105, looked up)
chain: MAKISSPTETERCIESLIAVFQKYAGKDGYNYTLSKTEFLSFMNTELAAFTKNQKDPGVLDRMMKKLDTNSDGQLDFSEFLNLIGGLAMACHDSFLKAVPSQKRT
notes: human S100A11 wild type; cloned in pmCherry-N1 (EcoRI, BamHI); End of the tag read from the label S100A11-mCherry and the vector pmCherry-N1; also called S100A11wt; wild-type S100A11-mCherry; source: U2OS or HEK293T cells, transfected (calcium phosphate), in living cells; not shown: mCherry, C-terminal, kept
For B1, the “FRET efficiency (E)” value with ANXA2-EGFP was 7.5%; with ANXA4-EGFP, about 5%; in the test with AnxA6-EGFP, about 6%; in the test with ANXA1-EGFP it was 5.3%; with EGFP-ANXA2 (partners not purified) it was about 9%.
